Test results published in patent US20040180380A1.

Key:
[1] = biological target: antibody C1; experiment: peptide competition ELISA; free peptide competes with coated target peptide for C1
[2] = biological target: antibody P1; experiment: peptide competition ELISA; competitor for P1
[3] = biological target: antibody P1; experiment: peptide competition ELISA; reference EPAELTDA
[4] = biological target: antibody C1; experiment: peptide competition ELISA; reference YEVQGEVF
[5] = biological target: antibody C1; experiment: peptide competition ELISA; competitor for C1

Binder: YEVQGEVF [CRP-derived 8-mer PET sequence YEVQGEVF]
- IC50 [1]: 1 µM

Binder: EPVELTSA [nearest-neighbor 8-mer EPVELTSA]
- IC50 [2]: > 1000 µM
- fold higher concentration (ineffective) than the antigen PET's half-maximum [3]: 25000 fold

Binder: VEVNGEVF [nearest-neighbor 8-mer VEVNGEVF]
- fold higher concentration (ineffective) than the antigen PET's half-maximum [4]: > 1000 fold
- IC50 [5]: > 1000 µM

Binder: YEVLGEEF [nearest-neighbor 8-mer YEVLGEEF]
- fold higher concentration (ineffective) than the antigen PET's half-maximum [4]: > 1000 fold
- IC50 [5]: > 1000 µM

Binder: DPTQLTDA [nearest-neighbor 8-mer DPTQLTDA]
- IC50 [2]: > 1000 µM
- fold higher concentration (ineffective) than the antigen PET's half-maximum [3]: 25000 fold
